The text below walks through data of US20140134132A1.

The target in this assay is organic anion transporting polypeptide 1B1 (UniProt Q9Y6L6). As to the kind of experiment: cell-based or functional assay.
organic anion transporting polypeptide 1B1, sequence (Q9Y6L6 whole entry): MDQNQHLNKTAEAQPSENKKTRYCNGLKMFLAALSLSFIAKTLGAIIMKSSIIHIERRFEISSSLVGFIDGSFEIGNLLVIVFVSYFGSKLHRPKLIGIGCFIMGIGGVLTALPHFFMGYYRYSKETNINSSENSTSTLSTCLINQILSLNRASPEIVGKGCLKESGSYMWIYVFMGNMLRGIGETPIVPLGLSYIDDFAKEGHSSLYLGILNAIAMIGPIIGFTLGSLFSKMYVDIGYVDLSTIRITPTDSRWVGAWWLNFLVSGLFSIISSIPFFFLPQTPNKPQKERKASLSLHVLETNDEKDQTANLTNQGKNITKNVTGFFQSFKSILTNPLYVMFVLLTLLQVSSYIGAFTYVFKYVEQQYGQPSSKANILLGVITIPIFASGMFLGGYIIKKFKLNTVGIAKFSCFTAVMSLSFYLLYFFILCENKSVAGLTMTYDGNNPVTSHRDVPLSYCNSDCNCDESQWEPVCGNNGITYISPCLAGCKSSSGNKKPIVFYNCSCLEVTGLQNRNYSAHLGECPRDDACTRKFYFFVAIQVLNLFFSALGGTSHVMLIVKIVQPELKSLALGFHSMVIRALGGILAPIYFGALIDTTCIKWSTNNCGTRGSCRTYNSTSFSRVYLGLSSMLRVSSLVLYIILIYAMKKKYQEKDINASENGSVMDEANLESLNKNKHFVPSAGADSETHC
Turning to “1-dihydro-3-[D-Ala]-4[(2S,3S)-2-Amino-4-[4-(2-methoxy-ethyl)-piperazin-1-yl]-3-methyl-butanoyl]-cyclosporin (peptide)”, the OATP1B13 IC50 is 3.3 µM.

“3-[(R)-2-(methylamino)butanoic acid]-4-[(2S,3S)-4-methoxy-3-methyl-2-(methylamino)butanoyl]-cyclosporin (peptide)” returned an OATP1B13 IC50 of 2.1 µM.

For the substance “3-[(R)-3-methyl-2-(methylamino)butanoyl]-4-[(2S,3S)-4-methoxy-3-methyl-2-(methylamino)butanoyl]-cyclosporin (peptide)”, the OATP1B13 IC50 came out at 2 µM.

“3-[(R)-5-hydroxy-2-(methylamino)pentanoyl]-4-[(2S,3S)-3-methyl-2-(methylamino)-4-(methylsulfonyl)butanoyl]-cyclosporin (peptide)” displayed an OATP1B13 IC50 of 2.7 µM.

For “3-[D-Ala]-4-[(2S,3R)-3,6-dimethyl-2-(methylamino)-6-((4-methylpiperazine-1-carbonyl)oxy)heptanoyl]-cyclosporin (peptide)”, the OATP1B13 IC50 came to 4.7 µM.

“3-[D-Ala]-4-[(2S,3R)-3-methoxy-2-(methylamino)-4-morpholinobutanoyl]-cyclosporin (peptide)” came in with an OATP1B13 IC50 of 0.9 µM.

The substance “3-[D-Ala]-4-[(2S,3R)-3-methyl-2-(methylamino)-4-(1,4-dioxa-8-azaspiro[4.5]decan-8-yl)butanoyl]-cyclosporin (peptide)” came in with an OATP1B13 IC50 of 2.1 µM.

“3-[D-Ala]-4-[(2S,3R)-3-methyl-2-(methylamino)-4-(1,4-oxazepan-4-yl)butanoyl]-cyclosporin (peptide)”: the OATP1B13 IC50 worked out at 1.7 µM.

In turn, “3-[D-Ala]-4-[(2S,3R)-3-methyl-2-(methylamino)-4-(2-oxa-6-azaspiro[3.3]heptan-6-yl)butanoyl]-cyclosporin (peptide)” came in with an OATP1B13 IC50 of 3.4 µM.

Regarding “3-[D-Ala]-4-[(2S,3R)-3-methyl-2-(methylamino)-4-(2-oxa-6-azaspiro[3.4]octan-6-yl)butanoyl]-cyclosporin (peptide)”, the OATP1B13 IC50 was 2 µM.

On to “3-[D-Ala]-4-[(2S,3R)-3-methyl-2-(methylamino)-4-(3-(trifluoromethyl)-5,6-dihydro-[1,2,4]triazolo[4,3-a]pyrazin-7(8H)-yl)butanoyl]-cyclosporin (peptide)”, for which the OATP1B13 IC50 came out at 1 µM.

On to “3-[D-Ala]-4-[(2S,3R)-3-methyl-2-(methylamino)-4-(3-oxopiperazin-1-yl)butanoyl]-cyclosporin (peptide)”, for which the OATP1B13 IC50 turned out to be 2.1 µM.

“3-[D-Ala]-4-[(2S,3R)-3-methyl-2-(methylamino)-4-(4-(methylsulfonyl)piperidin-1-yl)butanoyl]-cyclosporin (peptide)” displayed an OATP1B13 IC50 of 1.8 µM.

In turn, “3-[D-Ala]-4-[(2S,3R)-3-methyl-2-(methylamino)-4-(4-methylpiperazin-1-yl)butanoyl]-cyclosporin (peptide)” showed an OATP1B13 IC50 of 7.9 µM.

Turning to “3-[D-Ala]-4-[(2S,3R)-3-methyl-2-(methylamino)-5-((S)-2-methylpiperidin-1-yl)pentanoyl]-cyclosporin (peptide)”, the OATP1B13 IC50 was determined as 1.7 µM.

Substance “3-[D-Ala]-4-[(2S,3R)-3-methyl-2-(methylamino)-5-((S)-3-oxotetrahydro-1H-oxazolo[3,4-a]pyrazin-7(3H)-yl)pentanoyl]-cyclosporin (peptide)” showed an OATP1B13 IC50 of 2.8 µM.

As for “3-[D-Ala]-4-[(2S,3R)-3-methyl-2-(methylamino)-5-(piperidin-1-yl)pentanoyl]-cyclosporin (peptide)”, the OATP1B13 IC50 was determined as 2.3 µM.

In turn, “3-[D-Ala]-4-[(2S,3R)-3-methyl-2-(methylamino)-5-morpholinopentanoyl]-cyclosporin (peptide)” showed an OATP1B13 IC50 of 3.9 µM.

“3-[D-Ala]-4-[(2S,3R)-3-methyl-2-(methylamino)-6-(4-methylpiperazin-1-yl)-6-oxohexanoyl]-cyclosporin (peptide)” had an OATP1B13 IC50 of 5.4 µM.
